Assay results as given in FireProtDB (doi:10.1021/bi00231a002).
Several values for one entry are separate records, joined by “and”; a condition that tells them apart may be missing. Identical values can stand only once.

B1: Cytochrome c2, P00094 (parent)
chain: MKISLTAATVAALVLAAPAFAGDAAKGEKEFNKCKTCHSIIAPDGTEIVKGAKTGPNLYGVVGRTAGTYPEFKYKDSIVALGASGFAWTEEDIATYVKDPGAFLKEKLDDKKAKTGMAFKLAKGGEDVAAYLASVVK

Variants of: B1
Conditions: Rhodobacter capsulatus (strain ATCC BAA-309 / NBRC 16581 / SB1003); pH 7.5; 20 °C; GdnHCl; CD; Tris-HCl 20 mM; NaCl 40 mM; structure 1C2R; whole UniProt chain shown

Variant | denaturant m value | denaturant midpoint (higher = more stable) | unfolding free energy
MKISLTAATVAALVLAAPAFAGDAAKGEKEFNKCKTCHSIIAPDGTEIVKGAKTGPNLYGVVGRTAGTYPEFKYKDSIVALGASGFAWTEEDIATCVKDPGAFLKEKLDDKKAKTGMAFKLAKGGEDVAAYLASVVK [Y96C] | 2.57 kcal/mol/M and 1.96 kcal/mol/M | 1.44 M and 2.24 M | 3.71 kcal/mol and 4.4 kcal/mol
MKISLTAATVAALVLAAPAFAGDAAKGEKEFNKCKTCHSIIAPDGTEIVKGAKTGPNLYGVVGRTAGTYPEFKYKDSIVALGASGFAWTEEDIATFVKDPGAFLKEKLDDKKAKTGMAFKLAKGGEDVAAYLASVVK [Y96F] | 2.59 kcal/mol/M and 1.43 kcal/mol/M | 1.71 M and 3.32 M | 4.42 kcal/mol and 4.75 kcal/mol
